# According to patent US12534541B2, “Anti-PTK7 antibody and uses thereof” (MABCARE THERAPEUTICS, priority 2023, dated 2026):
# Read-outs that look alike come from different tables or passages of the source.
# B1: h6M24-vc0101: control drug: h6M24 (cofetuzumab) linked to Aur0101 via mc-VC-PAB linker, DAR about 4 (conjugate, chains of the INN, looked up)
# VH: QVQLVQSGPEVKKPGASVKVSCKASGYTFTDYAVHWVRQAPGKRLEWIGVISTYNDYTYNNQDFKGRVTMTRDTSASTAYMELSRLRSEDTAVYYCARGNSYFYALDYWGQGTSVTVSS
# VL: EIVLTQSPATLSLSPGERATLSCRASESVDSYGKSFMHWYQQKPGQAPRLLIYRASNLESGIPARFSGSGSGTDFTLTISSLEPEDFAVYYCQQSNEDPWTFGGGTKLEIK
# modifications: Aur0101 via mc-VC-PAB linker, DAR 4
# Columns and labels:
# [1] = tested on: small cell lung cancer PDX LD1-2025-362797; test: In vivo anti-tumor activity against human small cell lung cancer PDX LD1-2025-362797; details: NU/NU mice, i.v. 5 mg/kg, 1 dose, vs negative control
# Protocol: 6-week-old NU/NU mice, female, weighing 18-21 g, were purchased from Beijing Vital River Laboratory Animal Technology Co., Ltd. The mice were subcutaneously inoculated with small cell lung cancer tumor mass (specimen no. 362797, obtained from Xi'an LIDE Biotech Co. Ltd.). When the average tumor volume reached 150 mm^3, the antibody-drug conjugates Ab13-T1000-exatecan and h6M24-T1000-exatecan as prepared in Example 5 were administered intravenously at a dose of 10 mg/kg, respectively, the antibody-drug conjugate h6M24-vc0101 as prepared in Example 8 was administered intravenously at a dose of 5 mg/kg, and a negative control Vehicle group was set and administered intravenously with PBS at an equal dose, once a week for a total of 1 dose. After dosing, the tumor volume was measured twice a week using a vernier caliper and calculated according to the following formula: TV=(length*width^2)/2.
# [2] = tested on: colorectal cancer PDX LD1-2038-361980; test: In vivo anti-tumor activity against human colorectal cancer PDX LD1-2038-361980; details: NU/NU mice, i.v. 5 mg/kg, once a week, 2 doses, vs negative control
# Protocol: 6-week-old NU/NU mice, female, weighing 18-21 g, were purchased from Beijing Vital River Laboratory Animal Technology Co., Ltd. The mice were subcutaneously inoculated with colorectal cancer tumor mass (specimen no. 361980, obtained from Xi'an LIDE Biotech Co. Ltd.). When the average tumor volume reached 150 mm^3, the antibody-drug conjugate Ab13-T1000-exatecan as prepared in Example 5 was administered intravenously at a dose of 10 mg/kg, the antibody-drug conjugate h6M24-vc0101 as prepared in Example 8 was administered intravenously at a dose of 5 mg/kg, and a negative control Vehicle group was set and administered intravenously with PBS at an equal dose, once a week for a total of 2 doses. After dosing, the tumor volume was measured twice a week using a vernier caliper and calculated according to the following formula: TV=(length*width^2)/2.
# [3] = tested on: refractory ovarian cancer expressing PTK7, triple-negative breast cancer, and NSCLC; details: cited from earlier work
molecule,measurement,setting,value
B1,tumor growth inhibition (tumor volume over time),[1],does not produce any tumor growth inhibitory effect
same,tumor growth inhibition (tumor volume over time),[2],does not produce any tumor growth inhibitory effect
same,dose-limiting toxicity,[3]; highest dose assessed every 3 weeks,Two patients experienced a dose-limiting toxicity (grade 3 headache and fatigue)
same,objective response rate (ORR),[3]; patients with NSCLC (6/31 patients),19%
same,objective response rate (ORR),[3]; patients with refractory ovarian cancer expressing PTK7 (17/63 patients),27%
same,objective response rate (ORR),[3]; patients with triple-negative breast cancer (6/29 patients),21%
